Experimental data published in patent publication KR20160022857A (dated 2016).
Substitutions are numbered along the chain they refer to. One block for each binder: values may come before it.

What was measured:
[1] = target: T1, HER2-ECD-His 단백질 (human, UniProt P04626 23-652); assay: SPR (Biacore 3000); HER2-ECD-His amine-coupled on CM5; periplasmic extract as analyte
T1 construct: extracellular domain; Origin and limits of the construct are not described; not shown: His tag

[2] = target: T1, HER2-ECD-His 단백질; assay: SPR; IgG captured on goat anti-human IgG; HER2-ECD-His as analyte

B1: M1-L-A1-3-1C3 (hz1E11-3), periplasmic extract (antibody, V domains shown)
VH: EVQLVESGGGLVQPGGSLRLSCAASGFTFSSYTMSWVRQAPGKGLEWVAYISNGGGSTYYPDTVKGRFTISRDNAKNSLYLQMNSLRAEDTAVYYCARHLGGTASFDYWGQGTLVTVSS
VL: DIQMTQSPSSLSASVGDRVTITCLASQTIGTWLAWYQQKPGKAPKLLIYVATSLADGVPSRFSGSGSGTDFTLTISSLQPEDFATYYCDQMYSTPWTFGQGTKVEIK
notes: Clone as expressed in bacteria, periplasmic extract; LCDR3 DQMYSTPWT
- koff 감소 정도 (Fold) vs hz1E11 [1]: 7.4 fold

B5: M1-LH-A3-3-1A6 (antibody, V domains shown)
VH: B1 VH with H99N, L100Y
VL: B1 VL with D89Q, M91L, Y92V, S93R
- koff 감소 정도 (Fold) vs hz1E11 [1]: 5.8 fold

B6: M3-L-A1-3-1F11 (hz1E11-154), periplasmic extract (antibody, V domains shown)
VH: B1 VH
VL: B1 VL with D89Q, M91T, Y92A, S93F, T94S
notes: Clone as expressed in bacteria, periplasmic extract; LCDR3 QQTAFSPWT
- koff 감소 정도 (Fold) vs hz1E11 [1]: 9.7 fold

B8: M3-L-A3-4-2E8 (antibody, V domains shown)
VH: B1 VH
VL: B1 VL with D89Q, M91I, Y92A, S93Y, T94V
notes: hz1E11 variant, periplasmic extract; substitutions derived from the printed CDR3 against hz1E11
- koff 감소 정도 (Fold) vs hz1E11 [1]: 5.9 fold

B9: M3-L-A1-3-1A12 (hz1E11-133), periplasmic extract (antibody, V domains shown)
VH: B1 VH
VL: B1 VL with D89Q, M91N, Y92A, S93Y, T94A
notes: Clone as expressed in bacteria (IPTG), periplasmic extract; LCDR3 QQNAYAPWT
- koff 감소 정도 (Fold) vs hz1E11 [1]: 30.4 fold

B12: M3-L-A1-3-2C2 (antibody, V domains shown)
VH: B1 VH
VL: B1 VL with D89Q, M91L, Y92G, S93F, T94I
notes: as for B8
- koff 감소 정도 (Fold) vs hz1E11 [1]: 2 fold

Next, values leading:

- koff 감소 정도 (Fold) vs hz1E11 [1]: 3.6 fold
B2: M3-LH-A3-3-2A5 (antibody, V domains shown)
VH: B1 VH with L100W
VL: B1 VL with D89Q, Y92F

- koff 감소 정도 (Fold) vs hz1E11 [1]: 3.2 fold
B3: M3-LH-A1-2-2F4 (antibody, V domains shown)
VH: B1 VH with H99N
VL: B1 VL with D89Q, M91L, Y92V, S93R, T94I

- koff 감소 정도 (Fold) vs hz1E11 [1]: 0.7 fold
B4: M3-LH-A1-1-1H1 (antibody, V domains shown)
VH: B1 VH with H99N, L100Y
VL: B1 VL with D89Q, M91N, Y92F, S93I, T94A

- fold decrease of koff (kd) vs hz1E11 [2]: 8.4 fold
- fold improvement of affinity (KD) vs hz1E11 [2]: 15 fold
B7: hz1E11-133 (IgG) (antibody, V domains shown)
VH: B1 VH
VL: B1 VL with D89Q, M91N, Y92A, S93Y, T94A
notes: heavy variable region same as hz1E11

- koff 감소 정도 (Fold) vs hz1E11 [1]: 4.4 fold
B10: M3-LH-A3-3-2F1 (antibody, V domains shown)
VH: B1 VH
VL: B1 VL with D89Q, M91N, Y92A, S93Y, T94N
notes: substitutions derived from the printed CDR3

- fold decrease of koff (kd) vs hz1E11 [2]: 8.4 fold
- fold improvement of affinity (KD) vs hz1E11 [2]: 20 fold
B11: hz1E11-154 (IgG) (antibody, V domains shown)
VH: B1 VH
VL: B1 VL with D89Q, M91T, Y92A, S93F, T94S
notes: as for B7
